Data: patent US20210395344A1 (TWIST BIOSCIENCE, published 2021)
Where two headings read alike, the source gives them in different places.

What was measured:
[1] = molecular target: T1, SARS-CoV-2 Spike Glycoprotein S1 (subunit 1) (SARS-CoV-2, UniProt P0DTC2 16-685); assay: screening phage ELISA, mean
T1 construct: also called S1 Monomer; SARS-CoV-2 S1

[2] = molecular target: T1, SARS-CoV-2 Spike Glycoprotein S1 …; assay: screening phage ELISA, mean; remark: listed apart in the source
[3] = molecular target: T2, COVID S1 RBM Fc fusion (Antigen 2) (SARS-CoV-2, UniProt P0DTC2 437-508); assay: phage ELISA
T2 construct: domain: RBM

[4] = molecular target: T3, S1-Fc (SARS-CoV-2, UniProt P0DTC2 16-685); assay: phage ELISA
[5] = molecular target: T4, SARS-CoV-2 S1 (antigen of the Carterra SPR kinetics) (SARS-CoV-2, UniProt P0DTC2 16-685); assay: Carterra SPR
[6] = molecular target: T2, COVID S1 RBM Fc fusion (Antigen 2); assay: phage ELISA; remark: listed apart in the source
[7] = molecular target: T3, S1-Fc; assay: phage ELISA; remark: listed apart in the source
[8] = molecular target: T4, SARS-CoV-2 S1 (antigen of the Carterra …); assay: Carterra SPR; remark: listed apart in the source

| Binder | ELISA (Avg) [1] | ELISA (Avg) [2] | ELISA fold over background [3] [fold over background] | ELISA fold over background [4] [fold over background] | koff [5] [s⁻¹] | kon [5] [M⁻¹ s⁻¹] | ELISA fold over background [6] [fold over background] | ELISA fold over background [7] [fold over background] | Kd [8] [nM] | koff [8] [s⁻¹] | kon [8] [M⁻¹ s⁻¹] |
| --- | --- | --- | --- | --- | --- | --- | --- | --- | --- | --- | --- |
| 1-23 (antibody, V domains shown) VH: EVQLLESGGGLVQPGGSLRLSCAASGFTFSSYAISWVRQAPGKGLEWVSIISGSGGSTYYADSVKGRFTISRDNSKNTLYLQMNSLRAEDTAVYYCAREGYRDYLWYFDLWGQGTLVTVSS VL: QSALTQPASVSGSPGQSITISCTGTSNDVGSYNLVSWYQQHPGKAPKLMIYEGNKRPSGVSNRFSGSKSGNTASLTISGLQAEDEADYYCCSYAGSYTVFGGGTKLTVL | 23.1 | 23.1 | – | – | – | – | – | – | – | – | – |
| 1-2 (antibody, V domains shown, also called variant 1-2) VH: EVQLLESGGGLVQPGGSLRLSCAASGFTFSSQAMSWVRQAPGKGLEWVSAISGSGGGTYYADSVKGRFTISRDNSKNTLYLQMNSLRAEDTAVYYCAKDRRFGEFDPWGQGTLVTVSS VL: QSALTQPASVSGSPGQSITISCTGTSSGVGSYNLVSWYQQHPGKAPKLMIYEGIKRPSGVSNRFSGSKSGNTASLTISGLQAEDEADYYCCSYAGSSSFVVFGGGTKLTVL | – | – | 1.7 | 1.7 | 0.0272 | 1580 | 1.7 | 1.7 | 17200 | 0.0272 | 1580 |
| 1-31 (antibody, V domains shown, also called variant 1-31) VH: EVQLLESGGGLVQPGGSLRLSCAASGFTFSSYAMNWVRQAPGKGLEWVSAISGSGGSTFYADSVKGRFTISRDNSKNTLYLQMNSLRAEDTAVYYCTRPPYGDYGDYWGQGTLVTVSS VL: QSALTQPASVSGSPGQSITISCTGTSSDVGKYNLVSWYQQHPGKAPKLMIYEGSQRPSGVSNRFSGSKSGNTASLTISGLQAEDEADYYCCSYAGSRTPVVFGGGTKLTVL | – | – | 1.2 | 15.7 | 0.000762 | 20500 | 1.2 | 15.7 | 37.2 | 0.000762 | 20500 |
| 1-12 (antibody, V domains shown, also called variant 1-12) VH: EVQLLESGGGLVQPGGSLRLSCAASGITFSSYAMSWVRQAPGKGLEWVSGISGSGGSTYYADSVKGRFTISRDNSKNTLYLQMNSLRAEDTAVYYCAKHGSGTIFGVVIAKYYFDYWGQGTLVTVSS VL: QSALTQPASVSGSPGQSITISCTGTSSDVGHYNLVSWYQQHPGKAPKLMIYEGTKRPSGVSNRFSGSKSGNTASLTISGLQAEDEADYYCCSYAGSSSFVVFGGGTKLTVL | – | – | – | – | – | – | – | – | 372 | – | – |
| 1-35 (antibody, V domains shown, also called variant 1-35) VH: EVQLLESGGGLVQPGGSLRLSCAASGFTFSNYAMSWVRQAPGKGLEWVSDISGSGGSTYYADSVKGRFTISRDNSKNTLYLQMNSLRAEDTAVYYCVKGTIPIFGVIRSAFDYWGQGTLVTVSS VL: QSALTQPASVSGSPGQSITISCTGTSSDVGSYSLVSWYQQHPGKAPKLMIYEGTKRPSGVSNRFSGSKSGNTASLTISGLQAEDEADYYCCSYAGSYSYVVFGGGTKLTVL | – | – | 1.6 | – | – | – | 1.6 | – | – | – | – |
| 1-3 (antibody, V domains shown, also called variant 1-3) VH: EVQLLESGGGLVQPGGSLRLSCAASGFTFSSQAMSWVRQAPGKGLEWVSAISGSGGGTYYADSVKGRFTISRDNSKNTLYLQMNSLRAEDTAVYYCAKDRRFGEFDPWGQGTLVTVSS VL: QSALTQPASVSGSPGQSITISCTGISSDVGSYNLVSWYQQHPGKAPKLMIYEGTKRPSGVSNRFSGSKSGNTASLTISGLQAEDEADYYCCSYAGSSSFVVFGGGTKLTVL | – | – | 1.5 | 1.5 | 0.304 | 1.42e+06 | 1.5 | 1.5 | 215 | 0.304 | 1.42e+06 |
| 1-30 (antibody, V domains shown, also called variant 1-30) VH: EVQLLESGGGLVQPGGSLRLSCAASGFTFSSYAMTWVRQAPGKGLEWVSAISGSGGSTFYADSVKGRFTISRDNSKNTLYLQMNSLRAEDTAVYYCTRPPYGDYGDYWGQGTLVTVSS VL: QSALTQPASVSGSPGQSITISCTGTSRDVGSYNLVSWYQQHPGKAPKLMIYEGTKRPSGVSNRFSGSKSGNTASLTISGLQAEDEADYYCCSYAGSRTPVVFGGGTKLTVL | – | – | 1.4 | 5.6 | 0.00164 | 43900 | 1.4 | 5.6 | 37.2 | 0.00164 | 43900 |
| 1-20 (antibody, V domains shown, also called variant 1-20) VH: EVQLLESGGGLVQPGGSLRLSCAASGITFSSYAMSWVRQAPGKGLEWVSGISGSGGSTYYADSVKGRFTISRDNSKNTLYLQMNSLRAEDTAVYYCANHGSGTIFGVVIAKYYFDYWGQGTLVTVSS VL: QSALTQPASVSGSPGQSITISCTGTSSDVGHYNLVSWYQQHPGKAPKLMIYEGTKRPSGVSNRFSGSKSGNTASLTISGLQAEDEADYYCCSYAGSSSFVVFGGGTKLTVL | – | – | 0.8 | – | – | – | 0.8 | – | – | – | – |
| 1-5 (antibody, V domains shown, also called variant 1-5) VH: EVQLLESGGGLVQPGGSLRLSCAASGFTFSSQAMSWVRQAPGKGLEWVSAISGSGGGTYYADSVKGRFTISRDNSKNTLYLQMNSLRAEDTAVYYCAKDRRFGEFDPWGQGTLVTVSS VL: QSALTQPASVSGSPGQSITISCTGTSSGVGSYNLVSWYQQHPGKAPKLMIYEASKRPSGVSNRFSGSKSGNTASLTISGLQAEDEADYYCCSYAGSYTFAVFGGGTKLTVL | – | – | 1.4 | 1.2 | 0.054 | 2150 | 1.4 | 1.2 | 25200 | 0.054 | 2150 |
| 1-4 (antibody, V domains shown, also called variant 1-4) VH: EVQLLESGGGLVQPGGSLRLSCAASGFTFSSQAMSWVRQAPGKGLEWVSAISGSGGGTYYADSVKGRFTISRDNSKNTLYLQMNSLRAEDTAVYYCAKDRRFGEFDPWGQGTLVTVSS VL: QSALTQPASVSGSPGQSITISCTGTSSDVGTYNLVSWYQQHPGKAPKLMIYEGSQRPSGVSNRFSGSKSGNTASLTISGLQAEDEADYYCCSYAGSSSFVVFGGGTKLTVL | – | – | 1.1 | 0.9 | 0.124 | 42000 | 1.1 | 0.9 | 2950 | 0.124 | 42000 |
| 1-29 (antibody, V domains shown, also called variant 1-29) VH: EVQLLESGGGLVQPGGSLRLSCAASGFTFSSYAMYWVRQAPGKGLEWVSAISGSAGSTYYADSVKGRFTISRDNSKNTLYLQMNSLRAEDTAVYYCARDTNDFWSGYSIFDPWGQGTLVTVSS VL: QSALTQPASVSGSPGQSITISCTGTSSDIGSYNLVSWYQQHPGKAPKLMIYEGTKRPSGVSNRFSGSKSGNTASLTISGLQAEDEADYYCCSYAGSRTYVFGGGTKLTVL | – | – | 0.9 | 1 | 0.00197 | 535 | 0.9 | 1 | 3680 | 0.00197 | 535 |
| 1-49 (antibody, V domains shown, also called variant 1-49) VH: EVQLLESGGGLVQPGGSLRLSCAASGFTFSSYAMYWVRQAPGKGLEWVSAISGSAGSTYYADSVKGRFTISRDNSKNTLYLQMNSLRAEDTAVYYCARDTNDFWGQGTLVTVSS VL: QSALTQPASVSGSPGQSITISCTGTSSDIGSYNLVSWYQQHPGKAPKLMIYEGTKRPSGVSNRFSGSKSGNTASLTISGLQAEDEADYYCCSYAGSRTYVFGGGTKLTVL | – | – | 0.8 | – | – | – | 0.8 | – | – | – | – |
| 1-48 (antibody, V domains shown, also called variant 1-48) VH: EVQLLESGGGLVQPGGSLRLSCAASGFTFSSHAMYWVRQAPGKGLEWVSAISGSAGSTYYADSVKGRFTISRDNSKNTLYLQMNSLRAEDTAVYYCAHDTKDFWSGYCIFDPWGQGTLVTVSS VL: QSALTQPASVSGSPGQSITISCTGTSSDIGSYNLVSWYQQHPGKAPKLMIYEGTKRPSGVSNRFSGSKSGNTASLTISGLQAEDEADYYCCSYAGSRTYVFGGGTKLTVL | – | – | 0.8 | – | – | – | 0.8 | – | – | – | – |
